Reference: article PMC7600612 (2020)
Blank lines part the entries; values can stand above or below the molecule they belong to.

Legend:
FGFR2 (Homo sapiens) = FGFR2 (Homo sapiens) (UniProt P21802); conditions: cited from earlier work
[1] = target: Human FGF8b (fibroblast growth factor 8, isoform b) (human); assay: SPR; Biacore X100; FGF8b covalently attached (amine coupling, 295 RU) to a matrix-free C1 chip; FGFRL1 polypeptides injected at 3.125-50 nM in HBS-EP+ (10 mM HEPES, 150 mM NaCl, 3 mM EDTA, 0.05% P20, pH 7.4), 30 μL/min, 120 s association, 240 s dissociation; global kinetic fit to a 1:1 model
FGFRL1 (Homo sapiens) = FGFRL1 (Homo sapiens) (UniProt Q8N441); conditions: cited from earlier work
FGFR1 (Homo sapiens) = FGFR1 (Homo sapiens) (UniProt P11362); conditions: cited from earlier work
FGFRL1 Ig2 = target: T1, FGFRL1 Ig2 (Homo sapiens, UniProt Q8N441); assay: SPR
T1 chain: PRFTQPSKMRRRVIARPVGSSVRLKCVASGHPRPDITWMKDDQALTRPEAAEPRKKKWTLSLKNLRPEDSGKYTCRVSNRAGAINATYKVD

Sequence of FGFR1 (Homo sapiens) (P11362 22-822 P252R): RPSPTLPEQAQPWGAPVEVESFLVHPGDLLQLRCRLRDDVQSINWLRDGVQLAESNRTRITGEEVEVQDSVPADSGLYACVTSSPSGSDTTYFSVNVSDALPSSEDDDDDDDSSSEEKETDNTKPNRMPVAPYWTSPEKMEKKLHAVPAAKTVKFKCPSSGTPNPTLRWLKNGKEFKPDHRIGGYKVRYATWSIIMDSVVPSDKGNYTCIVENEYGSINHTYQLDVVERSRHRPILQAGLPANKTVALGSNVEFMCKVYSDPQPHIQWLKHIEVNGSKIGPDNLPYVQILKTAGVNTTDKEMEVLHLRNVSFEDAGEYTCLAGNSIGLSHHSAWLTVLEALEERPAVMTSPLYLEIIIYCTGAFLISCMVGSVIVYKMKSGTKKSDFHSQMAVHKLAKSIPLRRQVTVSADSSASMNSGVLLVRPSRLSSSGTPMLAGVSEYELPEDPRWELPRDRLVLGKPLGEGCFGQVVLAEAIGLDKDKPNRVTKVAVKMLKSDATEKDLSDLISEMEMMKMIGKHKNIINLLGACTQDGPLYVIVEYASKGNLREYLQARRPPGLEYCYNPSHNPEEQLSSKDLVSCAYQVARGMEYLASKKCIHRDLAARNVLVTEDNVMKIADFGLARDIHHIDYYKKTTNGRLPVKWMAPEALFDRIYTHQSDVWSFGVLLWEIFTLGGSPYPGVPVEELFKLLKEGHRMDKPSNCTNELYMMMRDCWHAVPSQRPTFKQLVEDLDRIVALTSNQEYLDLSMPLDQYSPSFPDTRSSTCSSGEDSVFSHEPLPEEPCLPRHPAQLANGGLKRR
Sequence of FGFR2 (Homo sapiens) (P21802 22-377): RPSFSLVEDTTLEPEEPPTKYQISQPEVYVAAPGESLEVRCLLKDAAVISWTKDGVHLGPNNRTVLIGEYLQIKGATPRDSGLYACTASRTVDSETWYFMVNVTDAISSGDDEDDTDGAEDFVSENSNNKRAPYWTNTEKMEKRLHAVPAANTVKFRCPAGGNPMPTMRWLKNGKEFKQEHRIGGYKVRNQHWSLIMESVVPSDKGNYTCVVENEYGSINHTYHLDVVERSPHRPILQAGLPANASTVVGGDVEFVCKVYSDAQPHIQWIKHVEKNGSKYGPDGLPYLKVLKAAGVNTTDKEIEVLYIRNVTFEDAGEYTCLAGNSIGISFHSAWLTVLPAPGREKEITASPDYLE
Sequence of FGFRL1 (Homo sapiens) (Q8N441 25-378): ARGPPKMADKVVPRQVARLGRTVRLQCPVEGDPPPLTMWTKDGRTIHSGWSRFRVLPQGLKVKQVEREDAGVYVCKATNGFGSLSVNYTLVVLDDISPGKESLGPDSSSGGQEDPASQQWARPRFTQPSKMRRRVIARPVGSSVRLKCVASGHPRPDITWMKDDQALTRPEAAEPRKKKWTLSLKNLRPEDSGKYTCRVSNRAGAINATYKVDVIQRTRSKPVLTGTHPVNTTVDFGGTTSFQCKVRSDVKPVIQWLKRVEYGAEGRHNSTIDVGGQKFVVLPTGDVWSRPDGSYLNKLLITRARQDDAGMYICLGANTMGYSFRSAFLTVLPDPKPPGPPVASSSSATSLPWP

Molecule: FGF8 (from UniProt P55075)
Kd (FGFR2 (Homo sapiens)): 130 nM

Kd [1]: 1.73 nM
koff [1]: 0.0092 s⁻¹
kon [1]: 5.32e+06 M⁻¹ s⁻¹
Molecule: FGFRL1 Ig2 construct (from UniProt Q8N441 25-26; Q8N441 118-239) (domain or fragment)

Kd [1]: 3.37 nM
koff [1]: 0.00126 s⁻¹
kon [1]: 373000 M⁻¹ s⁻¹
Molecule: FGFRL1 Ig123 (complete extracellular domain of human fibroblast growth factor receptor-like protein 1) (from UniProt Q8N441 25-359) (domain or fragment)

Kd [1]: 2.07 nM
koff [1]: 0.000806 s⁻¹
kon [1]: 390000 M⁻¹ s⁻¹
Molecule: FGFRL1 Ig23 construct (from UniProt Q8N441 25-26; Q8N441 118-357) (domain or fragment)

Kd [1]: 1.94 nM
koff [1]: 0.0107 s⁻¹
kon [1]: 5.49e+06 M⁻¹ s⁻¹
Molecule: FGFRL1 Ig12 construct (from UniProt Q8N441 25-239) (domain or fragment)

Molecule: FGF3 (from UniProt P11487)
Kd (FGFRL1 (Homo sapiens)): 4.2 nM

Molecule: FGF2 (from UniProt P09038)
Kd (FGFR1 (Homo sapiens)): 24 nM

Kd (FGFRL1 Ig2): 1.7 nM
B1: FGF8 (protein)
chain: QEGPGRGPALGRELASLFRAGREPQGVSQQHVREQSLVTDQLSRRLIRTYQLYSRTSGKHVQVLANKRINAMAEDGDPFAKLIVETDTFGSRVRVRGAETGLYICMNKKGKLIAKSNGKGKDCVFTEIVLENNYTALQNAKYEGWYMAFTRKGRPRKGSKTRQHQREVHFMKRLPRGHHTTEQSLRFEFLNYPPFTRSLRGSQRTWAPEPR
